# Experimental data as given in article doi:10.1101/2023.07.07.548106, “CXCL17 binds efficaciously to glycosaminoglycans with the potential to modulate chemokine signalling” (bioRxiv, 2023).
# Target: the molecule itself
# Test: reducing SDS-PAGE and Western blot; serial dilutions of recombinant CXCL17 (24-119), 1.25-10 uM, on reducing 12% Bis-Tris SDS-PAGE, blotted with anti-CXCL17; bands of 14 kDa and 28 kDa read as monomer and dimer; 28 kDa species at 5 uM and above
protein,measurement,value
"recombinant human CXCL17 (24-119) (natural protein, UniProt Q6UXB2 24-119, looked up, human CXCL17, residues Leu24-Leu119 of the 119-residue precursor (Q6UXB2), without the predicted signal peptide; the commercially available form; also called Leu24-Leu119 form of CXCL17; source: bought: R&D Systems; produced in E. coli) LNPGVARGHRDRGQASRRWLQEGGQECECKDWFLRAPRRKFMTVSGLPKKQCPCDHFKGNVKKTRHQRHHRKPNKHSRACQQFLKQCQLRSFALPL",ratio of monomer:dimer,3 monomer:dimer
same,stoichiometry N,2
